B1: LexA-NSD1-(790–818) [not stated] / AAD-ERα-LBD-(282–595) [not stated] (parent complex)
chain 1: SSQNHIPIEPDYKFSTLLMMLKDMHDSKT
chain 2: SAGDMRAANLWPSPLMIKRSKKNSLALSLTADQMVSALLDAEPPILYSEYDPTRPFSEASMMGLLTNLADRELVHMINWAKRVPGFVDLTLHDQVHLLECAWLEILMIGLVWRSMEHPGKLLFAPNLLLDRNQGKCVEGMVEIFDMLLATSSRFRMMNLQGEEFVCLKSIILLNSGVYTFLSSTLKSLEEKDHIHRVLDKITDTLIHLMAKAGLTLQQQHQRLAQLLLILSHIRHMSNKGMEHLYSMKCKNVVPLYDLLLEMLDAHRLHAPTSRGGASVEETDQSHLATAGSTSSHSLQKYYITGEAEGFPATV

Variants of: B1
Assay: yeast two-hybrid; + 1µM E2; read off a plot

| Variant | response [nmol/mg/min] |
| --- | --- |
| chain 1 SSQNHIPIEPDYKFATLLMMLKDMHDSKT | ~0 |
| chain 1 SSQNHIPIEPDYAFSTLLMMLKDMHDSKT | ~2100 |
| chain 1 SSQNHIPIEPDAKFSTLLMMLKDMHDSKT | ~2000 |
